Conditions: Escherichia phage lambda, Thermal, DSC, Potassium phosphate 20 nM, whole UniProt chain shown

B1: Regulatory protein cro wild type, P03040 (protein)
chain: MEQRITLKDYAMRFGQTKTAKDLGVYQSAINKAIHAGRKIFLTINADGSVYAEEVKPFPSNKKTTA
pH 5.18
  Tm: 35.5 °C
  heat capacity change of unfolding: 1.51 kcal/mol/K
  unfolding enthalpy (calorimetric): 34.9 kcal/mol
  unfolding enthalpy (van 't Hoff): 37.3 kcal/mol
pH 5.48
  Tm: 38 °C
  heat capacity change of unfolding: 1.61 kcal/mol/K
  unfolding enthalpy (calorimetric): 39 kcal/mol
  unfolding enthalpy (van 't Hoff): 40.7 kcal/mol
pH 6
  Tm: 44 °C
  heat capacity change of unfolding: 1.66 kcal/mol/K
  unfolding enthalpy (calorimetric): 48.1 kcal/mol
  unfolding enthalpy (van 't Hoff): 51 kcal/mol
pH 7
  Tm: 46.2 °C
  heat capacity change of unfolding: 1.36 kcal/mol/K
  unfolding enthalpy (calorimetric): 52.9 kcal/mol
  unfolding enthalpy (van 't Hoff): 52.4 kcal/mol
